Source: the supplement of paper PMC7877785
± gives the uncertainty stated by the source.

Test: self-splicing fitness, log relative to wild type (ln ratio); higher = more splicing; Tetrahymena group I intron in knt gene, E. coli kanamycin selection, DiMSum; sequences stand for … in CUCUCU…GGAGGGAAAAGUUAUCAGGCAUGCACCUGGUAGCUAGUCUUUAAACCAAUAGAUUGCAUCGGUUUAAAAGGCAAGACCGUCAAAUUGCGGGAAAGGGGUCAACAGCCGUUCAGUACCAAGUCUCAGGGGAAACUUUGAGAUGGCCUUGCAAAGGGUAUGGUAAUAAGCUGACGGACAUGGUCCUAACCACGCAGCCAAGUCCUAAGUCAACAGAUCUUCUGUUGAUAUGGAUGCAGUUCACAGACUAAAUGUCGGUCGGGGAAGAUGUAUUCUUCUCAUAAGAUAUAGUCGGACCUCUCCUUAAUGGGAGCUAGCGGAUGAAGUGAUGCAACACUGGAGCCGCUGGGAACUAAUUUGUAUGCGAAAGUAUAUUGAUUAGUUUUGGAGUACUCGUGGUCG
Outline: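 Library with all eight P1ex-region intron nucleotides randomised, intron inside the knt kanamycin-resistance gene on pET-22b(+), in E. coli BL21(DE3). Cells grew overnight at 37°C or 30°C on LB agar with or without 25 μg/mL kanamycin (plus 100 μg/mL carbenicillin, 50 μM IPTG, 0.2% rhamnose), in six replicate transformations. Pooled colonies were amplicon-sequenced on Illumina HiSeq 2500. DiMSum fitness is the error-weighted combination of wild-type-normalised replicate fold changes, kanamycin versus none.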

CCUGAGCAAUAUUACGCCUG
self-splicing fitness (ln) (30 °C): -3.03 ± 0.26 | self-splicing fitness (ln) (37 °C): -2.47 ± 0.25

CCUGAGCAAUAUUACGGACC
self-splicing fitness (ln) (37 °C): -3.02 ± 0.43

CCUGAGCAAUAUUACGGAUC
self-splicing fitness (ln) (30 °C): -2.1 ± 0.17 | self-splicing fitness (ln) (37 °C): -2.53 ± 0.22

CCUGAGCAAUAUUACGGCGC
self-splicing fitness (ln) (30 °C): -4.1 ± 0.28

CCUGAGCAAUAUUACGGGGU
self-splicing fitness (ln) (30 °C): -3.44 ± 0.24 | self-splicing fitness (ln) (37 °C): -3.06 ± 0.27

CCUGAGCAAUAUUACGGUCC
self-splicing fitness (ln) (30 °C): -1.71 ± 0.36 | self-splicing fitness (ln) (37 °C): -1.22 ± 0.43

CCUGAGCAAUAUUACGUAGG
self-splicing fitness (ln) (30 °C): -2.55 ± 0.15 | self-splicing fitness (ln) (37 °C): -2.24 ± 0.32

CCUGAGCAAUAUUACGUAUG
self-splicing fitness (ln) (30 °C): -2.38 ± 0.11 | self-splicing fitness (ln) (37 °C): -1.56 ± 0.11

CCUGAGCAAUAUUACGUCUG
self-splicing fitness (ln) (30 °C): -2.44 ± 0.14 | self-splicing fitness (ln) (37 °C): -1.4 ± 0.13

CCUUAGCAAUAUUACGAAGC
self-splicing fitness (ln) (30 °C): -3.24 ± 0.3 | self-splicing fitness (ln) (37 °C): -1.56 ± 0.32

CCUUAGCAAUAUUACGACAU
self-splicing fitness (ln) (30 °C): -3.677 ± 0.028 | self-splicing fitness (ln) (37 °C): -2.85 ± 0.043

CCUUAGCAAUAUUACGACCG
self-splicing fitness (ln) (30 °C): 0.294 ± 0.11 | self-splicing fitness (ln) (37 °C): -0.348 ± 0.18

CCUUAGCAAUAUUACGACCU
self-splicing fitness (ln) (30 °C): -2.79 ± 0.2 | self-splicing fitness (ln) (37 °C): -1.77 ± 0.29

CCUUAGCAAUAUUACGACGU
self-splicing fitness (ln) (30 °C): -2.25 ± 0.18 | self-splicing fitness (ln) (37 °C): -1.9 ± 0.23

CCUUAGCAAUAUUACGAUUC
self-splicing fitness (ln) (30 °C): -3.68 ± 0.25 | self-splicing fitness (ln) (37 °C): -3.28 ± 0.47

CCUUAGCAAUAUUACGCUCA
self-splicing fitness (ln) (30 °C): -3 ± 0.21 | self-splicing fitness (ln) (37 °C): -1.94 ± 0.3

CCUUAGCAAUAUUACGGACU
self-splicing fitness (ln) (30 °C): -2.41 ± 0.19 | self-splicing fitness (ln) (37 °C): -2.89 ± 0.43

CCUUAGCAAUAUUACGGAUG
self-splicing fitness (ln) (30 °C): -1.72 ± 0.064 | self-splicing fitness (ln) (37 °C): -0.271 ± 0.08

CCUUAGCAAUAUUACGGAUU
self-splicing fitness (ln) (30 °C): -3.31 ± 0.22 | self-splicing fitness (ln) (37 °C): -2.38 ± 0.36

CCUUAGCAAUAUUACGGCAG
self-splicing fitness (ln) (30 °C): -1.83 ± 0.12 | self-splicing fitness (ln) (37 °C): -2.73 ± 0.2

CCUUAGCAAUAUUACGGCCA
self-splicing fitness (ln) (30 °C): -3.46 ± 0.41 | self-splicing fitness (ln) (37 °C): -1.69 ± 0.18

CCUUAGCAAUAUUACGGCCG
self-splicing fitness (ln) (30 °C): -1.85 ± 0.23 | self-splicing fitness (ln) (37 °C): -0.27 ± 0.35

CCUUAGCAAUAUUACGGGAG
self-splicing fitness (ln) (30 °C): -3.19 ± 0.23 | self-splicing fitness (ln) (37 °C): -3.67 ± 0.39

CCUUAGCAAUAUUACGGUGA
self-splicing fitness (ln) (30 °C): -3.63 ± 0.35 | self-splicing fitness (ln) (37 °C): -2.91 ± 0.27

CCUUAGCAAUAUUACGUAGC
self-splicing fitness (ln) (30 °C): -2.7 ± 0.18 | self-splicing fitness (ln) (37 °C): -1.8 ± 0.21

CCUUAGCAAUAUUACGUAGG
self-splicing fitness (ln) (30 °C): -2.83 ± 0.14 | self-splicing fitness (ln) (37 °C): -2.83 ± 0.18

CCUUAGCAAUAUUACGUAUA
self-splicing fitness (ln) (37 °C): -3.25 ± 0.37

CCUUAGCAAUAUUACGUCUC
self-splicing fitness (ln) (37 °C): -2.63 ± 0.3

CCUUAGCAAUAUUACGUGAC
self-splicing fitness (ln) (30 °C): -3.61 ± 0.28 | self-splicing fitness (ln) (37 °C): -2.68 ± 0.28

CCUUAGCAAUAUUACGUUUC
self-splicing fitness (ln) (30 °C): -1.94 ± 0.18 | self-splicing fitness (ln) (37 °C): -1.11 ± 0.46

CGAAAGCAAUAUUACGACGU
self-splicing fitness (ln) (30 °C): -0.439 ± 0.067 | self-splicing fitness (ln) (37 °C): 0.0287 ± 0.078

CGAAAGCAAUAUUACGAGCU
self-splicing fitness (ln) (30 °C): -2.9 ± 0.12 | self-splicing fitness (ln) (37 °C): -1.59 ± 0.13

CGAAAGCAAUAUUACGAGUC
self-splicing fitness (ln) (30 °C): -2.98 ± 0.18 | self-splicing fitness (ln) (37 °C): -2.22 ± 0.35

CGAAAGCAAUAUUACGAGUG
self-splicing fitness (ln) (30 °C): -0.203 ± 0.049 | self-splicing fitness (ln) (37 °C): 0.0139 ± 0.065

CGAAAGCAAUAUUACGAUCA
self-splicing fitness (ln) (30 °C): -0.312 ± 0.1 | self-splicing fitness (ln) (37 °C): 0.699 ± 0.13

CGAAAGCAAUAUUACGAUUA
self-splicing fitness (ln) (30 °C): -1.48 ± 0.11 | self-splicing fitness (ln) (37 °C): -1.06 ± 0.13

CGAAAGCAAUAUUACGCCAC
self-splicing fitness (ln) (30 °C): -2.32 ± 0.37

CGAAAGCAAUAUUACGCCAU
self-splicing fitness (ln) (30 °C): -3.31 ± 0.45 | self-splicing fitness (ln) (37 °C): -2.78 ± 0.43

CGAAAGCAAUAUUACGCCCA
self-splicing fitness (ln) (30 °C): -0.283 ± 0.12 | self-splicing fitness (ln) (37 °C): 0.0973 ± 0.15

CGAAAGCAAUAUUACGCCCU
self-splicing fitness (ln) (30 °C): -0.989 ± 0.15 | self-splicing fitness (ln) (37 °C): 0.0487 ± 0.19

CGAAAGCAAUAUUACGCUGU
self-splicing fitness (ln) (30 °C): -3.2 ± 0.25 | self-splicing fitness (ln) (37 °C): -2.75 ± 0.33

CGAAAGCAAUAUUACGCUUA
self-splicing fitness (ln) (30 °C): -2.25 ± 0.16 | self-splicing fitness (ln) (37 °C): -1.24 ± 0.14

CGAAAGCAAUAUUACGGACA
self-splicing fitness (ln) (30 °C): -0.806 ± 0.074 | self-splicing fitness (ln) (37 °C): 0.186 ± 0.091

CGAAAGCAAUAUUACGGAGA
self-splicing fitness (ln) (30 °C): -2.59 ± 0.29 | self-splicing fitness (ln) (37 °C): -1.58 ± 0.37

CGAAAGCAAUAUUACGGCUC
self-splicing fitness (ln) (30 °C): -2.88 ± 0.18 | self-splicing fitness (ln) (37 °C): -1.73 ± 0.21

CGAAAGCAAUAUUACGGGCC
self-splicing fitness (ln) (30 °C): -3.07 ± 0.23 | self-splicing fitness (ln) (37 °C): -3.07 ± 0.21

CGAAAGCAAUAUUACGGUUC
self-splicing fitness (ln) (30 °C): -3.34 ± 0.16 | self-splicing fitness (ln) (37 °C): -2.33 ± 0.17

CGAAAGCAAUAUUACGGUUU
self-splicing fitness (ln) (30 °C): -2.51 ± 0.095 | self-splicing fitness (ln) (37 °C): -1.51 ± 0.11

CGAAAGCAAUAUUACGUGAC
self-splicing fitness (ln) (30 °C): -3.45 ± 0.12 | self-splicing fitness (ln) (37 °C): -2.22 ± 0.13
